Experimental data from doi:10.1101/2020.10.29.360743.

Molecular target: AcoD, ATP-dependent DMSP lyase of Psychrobacter sp. D2 (Psychrobacter sp. D2)
Assay: SEC

AcoD, ATP-dependent DMSP lyase of Psychrobacter sp. D2 (enzyme)
stoichiometry N: 2
